From publication PMC5307367 (2017)

Molecular target: T1, recombinant His-tagged wild-type ZPR9 (UniProt Q969S3 1-477)
T1 chain: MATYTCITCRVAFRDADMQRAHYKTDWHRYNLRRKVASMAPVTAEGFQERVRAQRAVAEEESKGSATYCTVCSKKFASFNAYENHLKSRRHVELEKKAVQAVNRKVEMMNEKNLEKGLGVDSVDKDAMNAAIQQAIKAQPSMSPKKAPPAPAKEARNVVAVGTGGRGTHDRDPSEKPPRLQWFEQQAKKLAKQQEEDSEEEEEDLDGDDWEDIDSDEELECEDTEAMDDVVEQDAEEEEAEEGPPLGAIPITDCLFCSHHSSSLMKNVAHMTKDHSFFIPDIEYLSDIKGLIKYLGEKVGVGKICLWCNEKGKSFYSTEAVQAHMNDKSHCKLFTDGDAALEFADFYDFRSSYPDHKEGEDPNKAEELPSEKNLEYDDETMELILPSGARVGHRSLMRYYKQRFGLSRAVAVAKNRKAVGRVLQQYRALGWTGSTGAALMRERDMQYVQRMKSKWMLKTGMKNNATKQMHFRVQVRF
Experiment: ITC

B1: recombinant His-tagged wild-type MPK38 (enzyme)
chain: MKDYDELLKYYELYETIGTGGFAKVKLACHVLTGEMVAIKIMDKNALGSDLPRVKTEIDALKSLRHQHICQLYHVLETKNKIFMVLEYCPGGELFDYIISQDRLSEEETRVVFRQILSAVAYVHSQGYAHRDLKPENLLFDENHKLKLIDFGLCAKPKGNKDYHLQTCCGSLAYAAPELIQGKSYLGSEADVWSMGILLYVLMCGFLPFDDDNVMALYKKIMRGKYEVPKWLSPSSILLLQQMLQVDPKKRISMRNLLNHPWVMQDYSCPVEWQSKTPLTHLDEDCVTELSVHHRSSRQTMEDLISSWQYDHLTATYLLLLAKKARGKPARLQLLSFSCGTASTTPKSKNLSLEDMSTSDDNCVAGLIDYELCEDKLLAPKTPQVTKHLAESNHAASKSPAPGVRRAVANKLMDKENVCTPKSSVKNEEQFVFSEPKIPVSKNQYKREIPASPTRFPTPAKARAQCLREAPVRTPGNSAGADTLTTGVISPERRCRSMDVDLNQAHMEDTPKKKGTNVFGSLERGLDKVLTALTRNKKKGSARDGPRKRKLHYNVTTTRLVNPDQLLSEIMAILPKKNVDFVQKGYTLKCQTQSDFGKVTMQFELEVCQLQRPDVVGIRRQRLKGDAWVYKRLVEDILSGCKM
Ka: 39100 M⁻¹
